The record followed here is patent publication US6972319B1, “Pituitary adenylate cyclase activating peptide (PACAP)receptor 3 (R3) agonists and their pharmacological methods of use” (priority 1999, dated 2005).

The EC50 is the concentration giving half of the maximal effect.

No end group written: not given here.

In one experiment the target is T1, PACAP-R2 (Homo sapiens, UniProt P32241).
T1 construct: expressed in transfected cells; host or cells: CHO cells
T1 sequence (P32241 31-457): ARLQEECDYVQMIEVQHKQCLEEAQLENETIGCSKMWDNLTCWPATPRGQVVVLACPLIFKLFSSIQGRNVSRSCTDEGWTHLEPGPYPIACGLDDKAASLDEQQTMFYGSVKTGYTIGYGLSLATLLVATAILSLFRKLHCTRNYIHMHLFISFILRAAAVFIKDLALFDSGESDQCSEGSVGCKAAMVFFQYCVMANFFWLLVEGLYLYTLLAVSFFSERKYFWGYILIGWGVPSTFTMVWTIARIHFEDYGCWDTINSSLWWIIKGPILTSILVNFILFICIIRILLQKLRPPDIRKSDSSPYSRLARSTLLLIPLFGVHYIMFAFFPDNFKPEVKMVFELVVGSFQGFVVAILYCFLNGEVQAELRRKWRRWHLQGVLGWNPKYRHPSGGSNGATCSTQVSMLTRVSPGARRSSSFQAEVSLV
Description: Cyclic AMP SPA on CHO cells transfected with PACAP-R2. The format is cell-based. Conditions: cAMP SPA, concentration at which 50% of maximum PACAP27 activity is achieved, NA = no detectable activities, read-out: R2 EC50. Put shortly: (§1)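 Potency reflects cyclic AMP accumulation, determined by SPA, after a 15 min, 37 C peptide exposure of CHO cells carrying the human receptor. Values are expressed relative to the maximal PACAP27 effect, with EC50 taken at its 50% level.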

Experiment [1] in a line: Peptide-induced elevation of plasma insulin after IVGTT in rats. The experiment is classed as in vivo. The settings on record: one minute after IVGTT (0.4 g/kg glucose), Wistar rats. How it is done:
Wistar rats are fasted overnight (17 hrs) and then anesthetized with pentobarbital (0.1 ml/100 g BW). Glucose (0.4 g/kg dissolved in 1% human albumin-saline)+/−peptide (dissolved in 1% human albumin-saline) is injected intravenously into the tail vein. The rats are eye-bled 1 minute after the injection and 50-100 ul of the plasma are assayed for insulin level with the Linco RIA kit (Linco Research, Inc., St. Charles, Mo.).
In accordance with the protocol of example 2 above, overnight fasted Wistar rats were anesthetized with pentobarital; i.v. injected with glucose±peptide and eye bled after 1 minute. N=12 rats/group. […] The peptide or vehicle was given i.v. followed by a glucose load given i.p. in accordance with example 3. The plasma glucose was followed over the time period indicated.
Plasma insulin: Data are expressed as % of plasma insulin one minute after IVGTT (0.4 g/kg glucose) with either saline, 0.1 nmol/kg P51, P55, P60, P66 or 1 nmole/kg of the other peptides in Wistar rats. Blood was drawn from the eye and insulin was measured with the rat insulin RIA kit (Linco Research, Inc., St. Charles, Mo.).

In experiment [2] the target is T2, PACAP-R3 (Homo sapiens, UniProt P41587).
T2 sequence (P41587 24-438): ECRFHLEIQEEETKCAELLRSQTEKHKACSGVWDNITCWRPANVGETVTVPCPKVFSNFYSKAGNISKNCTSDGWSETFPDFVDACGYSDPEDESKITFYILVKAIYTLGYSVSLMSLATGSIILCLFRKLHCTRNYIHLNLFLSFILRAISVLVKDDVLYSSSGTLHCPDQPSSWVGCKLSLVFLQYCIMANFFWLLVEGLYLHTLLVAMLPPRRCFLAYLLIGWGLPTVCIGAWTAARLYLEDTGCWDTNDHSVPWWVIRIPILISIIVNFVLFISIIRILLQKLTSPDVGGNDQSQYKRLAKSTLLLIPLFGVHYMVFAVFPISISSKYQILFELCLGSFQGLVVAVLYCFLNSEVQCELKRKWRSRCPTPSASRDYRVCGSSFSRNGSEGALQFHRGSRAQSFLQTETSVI
As to the kind of experiment: Cyclic AMP SPA on CHO cells expressing PACAP R3. The arrangement: expressed in transfected cells; host or cells: CHO cells (Geneticin selection). Conditions: for EC50: cAMP SPA, CHO cells transfected with PACAP-R3, concentration at which 50% of maximum PACAP27 activity is achieved, NA = no detectable activities, read-out: R3 EC50; for R3 Selectivity: ratio of EC50 at R2 versus EC50 at R3. The format is cell-based. Put shortly:
as §1

Experiment [3] is described as follows: Intraperitoneal glucose tolerance test (IPGTT), plasma glucose in rats. The settings on record: 1 nmole/kg s.c., rats, FIG. 7. The format is in vivo, Wistar rats. How it is done: Wistar rats are fasted overnight and then anesthetized with pentobarbital. The rats were eye-bled (zero time) and the peptide (in 1% human albumin) was injected into the tail vein. Five minutes later, 1 g/kg of glucose (in saline) was injected intraperitoneally, and the rats were eye-bled after 15, 30 and 60 minutes. Plasma glucose levels were determined using the Technicon Axon autoanalyzer, Bayer Diagnosics division of Bayer Corporation, Tarrytown N.Y., operated using Method No. SM4-2143F90“Glucose”.
Wistar rats were fasted overnight and then anesthetized with Pentobarbital. The rats were eye-bled (zero time) and the peptide (in 1% human albumin) was injected subcutaneously. Five minutes later, 1 g/kg of glucose (in saline) was injected intraperitoneally, and the rats were eye-bled after 30 minutes.
Plasma glucose: Data are expressed as % of vehicle of plasma glucose area under the curve after IPGTT (1 g/kg glucose) after treatment with 1 nmol/kg dose of the peptide. […] The present inventors have shown for the first time that this is because the effects of R2 and R3 on glucose tend to cancel each other out. […] Therefore, R3-selectivity appears to be a desirable attribute for medicaments which are to be employed in achieving blood glucose reduction, for treatment of type 2 diabetes.

Experiment [4] concerns the target T3, PACAP-R3 (human, UniProt P41587 24-438).
T3 sequence (looked up): T2 sequence (P41587 24-438)
As to the kind of experiment: cell-based or functional assay.

As for “HSDAVFTDNYTRLRKQMAAKKYLNSIKK [Peptide R3P51]”, the EC50 at PACAP-R2 was 23 nM. Further, the “Plasma Insulin (% of Basal)” value in experiment [1] (0.1 nmol/kg peptide i.v.) was 259%. On PACAP-R3 [2], the EC50 was found to be 0.26 nM and the “R3 Selectivity” value is on record as 90.

Consider “H-HSDAVFTDNYTRLRKQMAAKKYLNSIKNKRY [Peptide R3P55]”, for which, on PACAP-R2, the EC50 is 50 nM. Also, the “Plasma Insulin (% of Basal)” value in experiment [1] (0.1 nmol/kg peptide i.v.) was found to be 208%. Besides, at PACAP-R3 [2], the EC50 turned out to be 0.17 nM and the “R3 Selectivity” value was found to be 280.

For “HAEGTFTSDV SSYLEGQAAK EFIAWLVKGR-NH2 (HAEGTFTSDVSSYLEGQAAKEFIAWLVKGR-NH2) [GLP-1, incretin hormone released from the intestinal L-cell, a known insulin secretagogue, reference compound]”, in experiment [3], the “elevation of plasma glucose 30 minutes after IPGTT” value is recorded as “enhance glucose disposal”.

Consider “HSDAVFTDNYTRLRKQVAAKKYLQSIKK [Peptide R3P60]”, for which, at PACAP-R2, the EC50 came to 120 nM. In addition, the “Plasma Insulin (% of Basal)” value in experiment [1] (0.1 nmol/kg peptide i.v.) is 283%. At PACAP-R3 [2], the EC50 worked out at 1 nM and the “R3 Selectivity” value is recorded as 120.

Turning to `CC[C@H](C)[C@H](NC(=O)[C@H](CO)NC(=O)[C@H](CCC(N)=O)NC(=O)[C@H](CC(C)C)NC(=O)[C@H](Cc1ccc(O)cc1)NC(=O)[C@H](CCCCN)NC(=O)[C@H](CCCCN)NC(=O)[C@@H](NC(=O)[C@H](C)NC(=O)[C@@H](NC(=O)[C@H](CCC(N)=O)NC(=O)[C@H](CCCCN)NC(=O)[C@H](CCCNC(=N)N)NC(=O)[C@H](CC(C)C)NC(=O)[C@H](CCCNC(=N)N)NC(=O)[C@@H](NC(=O)[C@H](Cc1ccc(O)cc1)NC(=O)[C@H](CC(N)=O)NC(=O)[C@H](CC(=O)O)NC(=O)[C@@H](NC(=O)[C@H](Cc1ccccc1)NC(=O)[C@@H](NC(=O)[C@H](C)NC(=O)[C@H](CC(=O)O)NC(=O)[C@H](CO)NC(=O)[C@@H](N)Cc1c[nH]cn1)C(C)C)[C@@H](C)O)[C@@H](C)O)C(C)C)C(C)C)C(=O)N[C@@H](CCCCN)C(=O)N[C@@H](CCCCN)C(=O)N[C@@H](CCCCN)C(=O)N[C@@H](CCCNC(=N)N)C(=O)O` [Peptide R3P80], the “Plasma Insulin (% of Basal)” value in experiment [1] (1 nmole/kg peptide i.v.) was determined as 360%. The EC50 on PACAP-R3 [2] came out at 0.44 nM.

On to “HSDAVFTDNYTRLRKQVAVKKYLQSIKKK [Peptide R3P81]”, for which the EC50 at PACAP-R2 was determined as 50 nM. Further, in experiment [1] (1 nmole/kg peptide i.v.), the “Plasma Insulin (% of Basal)” value stood at 302%. On PACAP-R3 [2], the EC50 was 0.5 nM and the “R3 Selectivity” value is 100.

“HSDAVFTDNYTRLRKQLAAKKYLNDIKK-NH2 [Peptide R3P13]”: the EC50 on PACAP-R2 is 163 nM. The “elevation of plasma glucose 30 minutes after IPGTT” value in experiment [3] was “significantly reduced”. At PACAP-R3 [2], the EC50 came to 5 nM and the “R3 Selectivity” value is 33.

Consider HSDAVFTDNYTRLRKQMAGKKYLNSIQNRI [rR3P185], for which, in the experiment with PACAP-R3 [4], the “R3 EC50, nM (cAMP SPA)” value is 4.5 nM and the “R3 Selectivity” value is 40 ratio.

HSDAVFTDNYTRLRKQMAGKKYLNSIRNRI [rR3P190]: in the experiment with PACAP-R3 [4], the “R3 EC50, nM (cAMP SPA)” value amounted to 2.2 nM and the “R3 Selectivity” value is 100 ratio.

For HSDAVFTDNYTRLRKQMASKKYLNSIPNRI [rR3P183], in the experiment with PACAP-R3 [4], the “R3 EC50, nM (cAMP SPA)” value is 5.4 nM and the “R3 Selectivity” value is > 30 ratio.

Regarding HSDAVFTDNYTRLRKQMARKKYLNSIKNRI [rR3P177], in the experiment with PACAP-R3 [4], the “R3 EC50, nM (cAMP SPA)” value came out at 1.6 nM and the “R3 Selectivity” value was found to be 70 ratio.

Consider HSDAVFTDNYTRLRKQMAKKKYLNSIQNRI [rR3P186], for which, in the experiment with PACAP-R3 [4], the “R3 EC50, nM (cAMP SPA)” value turned out to be 1.6 nM and the “R3 Selectivity” value is 44 ratio.

For the molecule HSDAVFTDNYTRLRKQMAKKKYLNSIRNRI [rR3P191], in the experiment with PACAP-R3 [4], the “R3 EC50, nM (cAMP SPA)” value came out at 2.7 nM and the “R3 Selectivity” value is > 80 ratio.

HSDAVFTDNYTRLRKQMAAKKYLNSIQNRI [rR3P184]: in the experiment with PACAP-R3 [4], the “R3 EC50, nM (cAMP SPA)” value is 0.37 nM and the “R3 Selectivity” value is 30 ratio.

Regarding HSDAVFTDNYTRLRKQMAGKKYLNSIPNRI [rR3P180], in the experiment with PACAP-R3 [4], the “R3 EC50, nM (cAMP SPA)” value came to 6.7 nM and the “R3 Selectivity” value was > 20 ratio.

On to HSDAVFTDNYTRLRKQMARKKYLNSIRNRI [rR3P192], for which, in the experiment with PACAP-R3 [4], the “R3 EC50, nM (cAMP SPA)” value came out at 0.6 nM and the “R3 Selectivity” value worked out at 60 ratio.

Turning to HSDAVFTDNYTRLRKQMASKKYLNSIQNRI [rR3P188], in the experiment with PACAP-R3 [4], the “R3 EC50, nM (cAMP SPA)” value was 2.2 nM and the “R3 Selectivity” value worked out at 70 ratio.

Turning to HSDAVFTDNYTRLRKQMAAKKYLNSIRNRI [rR3P189], in the experiment with PACAP-R3 [4], the “R3 EC50, nM (cAMP SPA)” value amounted to 0.04 nM and the “R3 Selectivity” value amounted to 30 ratio.

For HSDAVFTDNYTRLRKQMAAKKYLNSIPNRI [rR3P179], in the experiment with PACAP-R3 [4], the “R3 EC50, nM (cAMP SPA)” value turned out to be 1.5 nM and the “R3 Selectivity” value is 150 ratio.

For HSDAVFTDNYTRLRKQMARKKYLNSIPNRI [rR3P182], in the experiment with PACAP-R3 [4], the “R3 EC50, nM (cAMP SPA)” value was determined as 3.2 nM and the “R3 Selectivity” value came to 90 ratio.

As to HSDAVFTDNYTRLRKQMASKKYLNSIKNRI [rR3P178], in the experiment with PACAP-R3 [4], the “R3 EC50, nM (cAMP SPA)” value was found to be 0.75 nM and the “R3 Selectivity” value was 110 ratio.

For the molecule HSDAVFTDNYTRLRKQMAKKKYLNSIPNRI [rR3P181], in the experiment with PACAP-R3 [4], the “R3 EC50, nM (cAMP SPA)” value came out at 5.1 nM and the “R3 Selectivity” value is 50 ratio.

As to HSDAVFTDNYTRLRKQMASKKYLNSIRNRI [rR3P193], in the experiment with PACAP-R3 [4], the “R3 EC50, nM (cAMP SPA)” value was 1.9 nM and the “R3 Selectivity” value came to 110 ratio.

As to HSDAVFTDNYTRLRKQMARKKYLNSIQNRI [rR3P187], in the experiment with PACAP-R3 [4], the “R3 EC50, nM (cAMP SPA)” value worked out at 1.6 nM and the “R3 Selectivity” value is > 80 ratio.
